The values that follow come from patent US20240025993A1, “CD19 BINDING MOLECULES AND USES THEREOF” (NOVARTIS AG, priority 2020, published 2024).

In this test the target is human Fc gamma receptor 1A (human) (UniProt P12314). Nature of the test: SPR (Biacore T200), antibody amine-coupled on CM5 chip, receptor as analyte.
Chain of human Fc gamma receptor 1A (human) (P12314 16-288 limits assumed): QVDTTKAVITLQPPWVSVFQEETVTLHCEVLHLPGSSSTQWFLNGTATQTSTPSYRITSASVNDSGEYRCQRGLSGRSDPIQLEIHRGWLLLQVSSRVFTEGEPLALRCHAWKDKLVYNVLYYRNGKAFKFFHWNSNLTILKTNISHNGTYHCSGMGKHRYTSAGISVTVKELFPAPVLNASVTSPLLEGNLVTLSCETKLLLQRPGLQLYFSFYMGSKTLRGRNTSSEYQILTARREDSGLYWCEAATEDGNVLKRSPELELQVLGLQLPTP
Take “Anti-CD3 human IgG1 antibody, GADAPA Fc variant (G237A/D265A/P329A)”: the Maximum response at 100 nM hFcgammaRIA (RU) was 16 RU.
The result for “Anti-CD3 human IgG1 antibody, DAPASK Fc variant (D265A/P329A/S267K)” reads 13 RU.
The result for “Anti-CD3 human IgG1 antibody, LALAGA Fc variant (L234A/L235A/G237A)” reads 15 RU.
The figure for “Anti-CD3 human IgG1 antibody, LALASKPA Fc variant (L234A/L235A/S267K/P329A)” is 9 RU.
Turning to “Anti-CD3 human IgG1 antibody, DANAPA Fc variant (D265A/N297A/P329A)”, the Maximum response at 100 nM hFcgammaRIA (RU) was 11 RU.
The result for “Anti-CD3 human IgG1 antibody, LALAPG Fc variant (L234A/L235A/P329G)” reads 18 RU.
The figure for “Anti-CD3 human IgG1 antibody, GADAPASK Fc variant (G237A/D265A/P329A/S267K)” is 10 RU.
